According to the supplement of paper PMC12764529:
± gives the half width of the 95% confidence interval.

assay: folding stability dG unfold from trypsin proteolysis; higher = more stable
How it was run: (§1)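 Unfolding free energy was derived, per protease or combined, against a sequence-predicted unfolded-state K50 and a shared folded-state K50, starting from K50 inferred by Bayesian fitting of sequencing counts. Digestion with trypsin and chymotrypsin was carried out on designed mini-proteins under 80 residues without cysteine in a PA-tagged cDNA display construct. Only designs with AlphaFold2 dimer inter-PAE above 15 were kept.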

In order of falling “folding stability dG unfold” value:
1. SAGGSAGGMNIQILKVDPDNGTITLAIPVDNWIVAISIKIRPDPNNPGMFKLDIDIHWFPADDISAGGSAGG [r6_372_TrROS]  3.77 ± 0.14 kcal/mol
2. SAGGKKKAKAYIVEKTTEKEGLKYYKVLIELGGKPLVFVIKSTSLEEVEEAIKKLAEELGVEVEIVPGSAGG [r13_750_TrMRF]  3.77 ± 0.1 kcal/mol
3. SAGGSAGGSASTITITTPSGEKVKVTLTSLPTPTTLATITVTSTGKTYTIVIAPDGTITLASAGGSAGGSAG [r3_15_JUSTAS]  3.4 ± 0.067 kcal/mol
4. SFTVERNVYRIENPPKLVVNVIITAEDGTPVPPEVVEEAVRELEKAGFPVKKVSVTPLPDGSVLVTVEVDVS [r1_408_TrMRF]  2.84 ± 0.1 kcal/mol
5. SAGGMKTLKIKIKVPEDEEKAEELAKKLEELFGLKVEVEKKDGELTITVEVSEEVRELLKELGVEIEPSAGG [r13_156_TrROS_Hall]  2.58 ± 0.16 kcal/mol
6. SAGGSAGGSMTIPESEFKQMSEEELKKLLLENPEPVTVVTSDPEILERIKKIFEKLGIKITLESAGGSAGGS [r12_97_JUSTAS]  2.4 ± 0.11 kcal/mol
7. SAGGSAKTITIYAPDLPLSEAIETLERLIKELGLTPVSVSVSYNPETGTVTITVTLPNGDTLTLHVSAGGSA [r15_958_TrMRF]  2.18 ± 0.058 kcal/mol
8. SAGGSGMIYVIKIKLEPTIKPGKKKEFEFELVLEATPEEIEEVLEKIKKLPKNIKIKEIKIEVFPESAGGSA [r2_75_TrMRF]  2.08 ± 0.12 kcal/mol
9. SAGGMKINPKVFGNYVLVEVENPETGSRILKLVEFNPGPKTATVKVFYIDPNGKPTLLEEKTFSLPDLSAGG [r13_768_TrMRF]  1.36 ± 0.018 kcal/mol
10. SGSMTLVSESTVPEKGTTLLTLKFPNGAPATVTLNPDGSSTTTFPATGLPFTVTVGSGTLTVTTPAALALSA [r9_233_JUSTAS]  1.01 ± 0.1 kcal/mol
11. SAGGVVTFLPGNLIKTTYFDPEKGTRTETLYYVPPDGTTTKLKTTVTPIPPTPLERPFFFGPDDVPVLSAGG [r13_646_JUSTAS]  0.517 ± 0.059 kcal/mol
12. SPVVVTTSPGPDGGARVTIYFPKTGKPIEFDITDPDLVEESTSDPNTRVDIPEEVLRSLAPDLFTGFTTESA [r9_390_TrMRF]  0.497 ± 0.046 kcal/mol
13. SAGGMKVTITVTDPEAFRAAVEALPEVPPEQVSTSPLPGNSYTATFPSEKAVELLKAAGVPITEIAASAGGS [r16_381_JUSTAS]  0.377 ± 0.022 kcal/mol
14. SKPETVTFPFNIPLKDMPLEDIKEEAKEWLRNFGYKVEKPEITPEMLKLLKDMPPGQEIPITITIKVEPKSA [r9_1163_TrROS]  0.301 ± 0.12 kcal/mol
15. SAGGSAMIEIEIVKPNASPEEAEKLEKEVREKLLEEGVPEEVVKEVNIKVIVKPVKKDKNNNPILESAGGSA [r15_684_JUSTAS]  -0.215 ± 0.15 kcal/mol
16. SAGGSAMDLKIKKKERDPPNGTKKLTVEVPGWEVEINIERNPDGPYKIEIYAPNPAAKNAIKEFIKSAGGSA [r15_42_TrROS]  -0.275 ± 0.26 kcal/mol
17. SAGGPNVPIRIRVTIERQDPDGEPKDFEFPIEYPMPPDDPEQAKEQIEELAESIAEKHGYKVEIEIEPSAGG [r13_853_TrROS]  -0.664 ± 0.18 kcal/mol

assay: folding stability dG unfold from chymotrypsin proteolysis; higher = more stable
How it was run: as §1

In order of falling “folding stability dG unfold” value:
1. SAGGKKKAKAYIVEKTTEKEGLKYYKVLIELGGKPLVFVIKSTSLEEVEEAIKKLAEELGVEVEIVPGSAGG [r13_750_TrMRF]  4.69 ± 0.089 kcal/mol
2. SAGGSAGGMNIQILKVDPDNGTITLAIPVDNWIVAISIKIRPDPNNPGMFKLDIDIHWFPADDISAGGSAGG [r6_372_TrROS]  4.44 ± 0.11 kcal/mol
3. SAGGMKTLKIKIKVPEDEEKAEELAKKLEELFGLKVEVEKKDGELTITVEVSEEVRELLKELGVEIEPSAGG [r13_156_TrROS_Hall]  4.15 ± 0.089 kcal/mol
4. SAGGSAGGSASTITITTPSGEKVKVTLTSLPTPTTLATITVTSTGKTYTIVIAPDGTITLASAGGSAGGSAG [r3_15_JUSTAS]  3.66 ± 0.026 kcal/mol
5. SAGGSAKTITIYAPDLPLSEAIETLERLIKELGLTPVSVSVSYNPETGTVTITVTLPNGDTLTLHVSAGGSA [r15_958_TrMRF]  3.37 ± 0.046 kcal/mol
6. SAGGSGMIYVIKIKLEPTIKPGKKKEFEFELVLEATPEEIEEVLEKIKKLPKNIKIKEIKIEVFPESAGGSA [r2_75_TrMRF]  3.18 ± 0.073 kcal/mol
7. SAGGMKINPKVFGNYVLVEVENPETGSRILKLVEFNPGPKTATVKVFYIDPNGKPTLLEEKTFSLPDLSAGG [r13_768_TrMRF]  2.736 ± 0.025 kcal/mol
8. SAGGSAGGSMTIPESEFKQMSEEELKKLLLENPEPVTVVTSDPEILERIKKIFEKLGIKITLESAGGSAGGS [r12_97_JUSTAS]  2.63 ± 0.12 kcal/mol
9. SFTVERNVYRIENPPKLVVNVIITAEDGTPVPPEVVEEAVRELEKAGFPVKKVSVTPLPDGSVLVTVEVDVS [r1_408_TrMRF]  2.13 ± 0.071 kcal/mol
10. SGSMTLVSESTVPEKGTTLLTLKFPNGAPATVTLNPDGSSTTTFPATGLPFTVTVGSGTLTVTTPAALALSA [r9_233_JUSTAS]  1.42 ± 0.12 kcal/mol
11. SKPETVTFPFNIPLKDMPLEDIKEEAKEWLRNFGYKVEKPEITPEMLKLLKDMPPGQEIPITITIKVEPKSA [r9_1163_TrROS]  1.08 ± 0.18 kcal/mol
12. SAGGSAMIEIEIVKPNASPEEAEKLEKEVREKLLEEGVPEEVVKEVNIKVIVKPVKKDKNNNPILESAGGSA [r15_684_JUSTAS]  0.977 ± 0.19 kcal/mol
13. SAGGMKVTITVTDPEAFRAAVEALPEVPPEQVSTSPLPGNSYTATFPSEKAVELLKAAGVPITEIAASAGGS [r16_381_JUSTAS]  0.63 ± 0.074 kcal/mol
14. SAGGSAMDLKIKKKERDPPNGTKKLTVEVPGWEVEINIERNPDGPYKIEIYAPNPAAKNAIKEFIKSAGGSA [r15_42_TrROS]  0.488 ± 0.18 kcal/mol
15. SAGGVVTFLPGNLIKTTYFDPEKGTRTETLYYVPPDGTTTKLKTTVTPIPPTPLERPFFFGPDDVPVLSAGG [r13_646_JUSTAS]  0.306 ± 0.21 kcal/mol
16. SPVVVTTSPGPDGGARVTIYFPKTGKPIEFDITDPDLVEESTSDPNTRVDIPEEVLRSLAPDLFTGFTTESA [r9_390_TrMRF]  0.241 ± 0.1 kcal/mol
17. SAGGPNVPIRIRVTIERQDPDGEPKDFEFPIEYPMPPDDPEQAKEQIEELAESIAEKHGYKVEIEIEPSAGG [r13_853_TrROS]  -0.45 ± 0.29 kcal/mol

assay: folding stability dG unfold (combined trypsin and chymotrypsin); higher = more stable
How it was run: as §1

In order of rising “folding stability dG unfold” value:
1. SAGGPNVPIRIRVTIERQDPDGEPKDFEFPIEYPMPPDDPEQAKEQIEELAESIAEKHGYKVEIEIEPSAGG [r13_853_TrROS]  -0.627 ± 0.55 kcal/mol
2. SAGGSAMDLKIKKKERDPPNGTKKLTVEVPGWEVEINIERNPDGPYKIEIYAPNPAAKNAIKEFIKSAGGSA [r15_42_TrROS]  0.324 ± 0.2 kcal/mol
3. SPVVVTTSPGPDGGARVTIYFPKTGKPIEFDITDPDLVEESTSDPNTRVDIPEEVLRSLAPDLFTGFTTESA [r9_390_TrMRF]  0.362 ± 0.065 kcal/mol
4. SAGGVVTFLPGNLIKTTYFDPEKGTRTETLYYVPPDGTTTKLKTTVTPIPPTPLERPFFFGPDDVPVLSAGG [r13_646_JUSTAS]  0.474 ± 0.15 kcal/mol
5. SAGGMKVTITVTDPEAFRAAVEALPEVPPEQVSTSPLPGNSYTATFPSEKAVELLKAAGVPITEIAASAGGS [r16_381_JUSTAS]  0.568 ± 0.05 kcal/mol
6. SAGGSAMIEIEIVKPNASPEEAEKLEKEVREKLLEEGVPEEVVKEVNIKVIVKPVKKDKNNNPILESAGGSA [r15_684_JUSTAS]  0.811 ± 0.2 kcal/mol
7. SKPETVTFPFNIPLKDMPLEDIKEEAKEWLRNFGYKVEKPEITPEMLKLLKDMPPGQEIPITITIKVEPKSA [r9_1163_TrROS]  0.828 ± 0.085 kcal/mol
8. SGSMTLVSESTVPEKGTTLLTLKFPNGAPATVTLNPDGSSTTTFPATGLPFTVTVGSGTLTVTTPAALALSA [r9_233_JUSTAS]  1.23 ± 0.18 kcal/mol
9. SAGGMKINPKVFGNYVLVEVENPETGSRILKLVEFNPGPKTATVKVFYIDPNGKPTLLEEKTFSLPDLSAGG [r13_768_TrMRF]  2.32 ± 0.071 kcal/mol
10. SFTVERNVYRIENPPKLVVNVIITAEDGTPVPPEVVEEAVRELEKAGFPVKKVSVTPLPDGSVLVTVEVDVS [r1_408_TrMRF]  2.52 ± 0.083 kcal/mol
11. SAGGSAGGSMTIPESEFKQMSEEELKKLLLENPEPVTVVTSDPEILERIKKIFEKLGIKITLESAGGSAGGS [r12_97_JUSTAS]  2.59 ± 0.14 kcal/mol
12. SAGGSGMIYVIKIKLEPTIKPGKKKEFEFELVLEATPEEIEEVLEKIKKLPKNIKIKEIKIEVFPESAGGSA [r2_75_TrMRF]  2.6 ± 0.32 kcal/mol
13. SAGGSAKTITIYAPDLPLSEAIETLERLIKELGLTPVSVSVSYNPETGTVTITVTLPNGDTLTLHVSAGGSA [r15_958_TrMRF]  2.99 ± 0.079 kcal/mol
14. SAGGSAGGSASTITITTPSGEKVKVTLTSLPTPTTLATITVTSTGKTYTIVIAPDGTITLASAGGSAGGSAG [r3_15_JUSTAS]  3.54 ± 0.075 kcal/mol
15. SAGGMKTLKIKIKVPEDEEKAEELAKKLEELFGLKVEVEKKDGELTITVEVSEEVRELLKELGVEIEPSAGG [r13_156_TrROS_Hall]  3.79 ± 0.16 kcal/mol
16. SAGGSAGGMNIQILKVDPDNGTITLAIPVDNWIVAISIKIRPDPNNPGMFKLDIDIHWFPADDISAGGSAGG [r6_372_TrROS]  4.28 ± 0.091 kcal/mol
17. SAGGKKKAKAYIVEKTTEKEGLKYYKVLIELGGKPLVFVIKSTSLEEVEEAIKKLAEELGVEVEIVPGSAGG [r13_750_TrMRF]  4.53 ± 0.08 kcal/mol
